Data on one molecule can be found in patent publication US20220153847A1 (Chugai, published 2022).

This experiment addresses HLA-DQ2.5/33mer gliadin peptide on IHW9088 cells (human). The experiment can be described thus: cell-based or functional assay.

B1: DQN0139bb//IC17 (bispecific antibody, human IgG1, kappa)
heavy 1: QSLEESGGRLVTPGTALTLTCTVSGFSLSSYAMGWVRQAPGKGLEYIGWTSPGDSAYYASWTKGRFTISRTSTTVELKITSPTTEDTATYFCARDAAYIGHWAFNLWGPGTLVTVSSASTKGPSVFPLAPSSKSTSGGTAALGCLVKDYFPEPVTVSWNSGALTSGVHTFPAVLQSSGLYSLSSVVTVPSSSLGTQTYICNVNHKPSNTKVDKRVEPKSCDKTHTCPPCPAPELRRGPSVFLFPPKPKDTLMISRTPEVTCVVVDVSHEDPEVKFNWYVDGVEVHNAKTKPREEQYNSTYRVVSVLTVLHQDWLNGKEYKCKVSNKALPAPIEKTISKAKGQPREPQVYTLPPSREEMTKNQVSLTCLVKGFYPSDIAVEWESNGQPENNYKTTPPYLDSDGSFFLYSKLTVDKSRWQQGNVFSCSVMHEALHNHYTQESLSLSP
light 1: DVVMTQTPASVSAPVGGTVTINCQASESIYSNLAWYQQKPGQPPKLLIYGASTLESGVPSRVKGSGYGTQFTLTISDLECADAATYYCQQYYGSSSTAFTFGGGTKVEIKRTVAAPSVFIFPPSDEQLKSGTASVVCLLNNFYPREAKVQWKVDNALQSGNSQESVTEQDSKDCTYSLSSTLTLSKADYEKHKVYACEVTHQGLSSPVTKSFNRGEC
heavy 2: QVQLQQSGPQLVRPGASVKISCKASGYSFTSYWMHWVNQRPGQGLEWIGMIDPSYSETRLNQKFKDKATLTVDKSSSTAYMQLSSPTSEDSAVYYCALYGNYFDYWGQGTTLTVSSASTKGPSVFPLAPSSKSTSGGTAALGCLVKDYFPEPVTVSWNSGALTSGVHTFPAVLQSSGLYSLSSVVTVPSSSLGTQTYICNVNHKPSNTKVDKRVEPKSCDKTHTCPPCPAPELRRGPSVFLFPPKPKDTLMISRTPEVTCVVVDVSHEDPEVKFNWYVDGVEVHNAKTKPREEQYNSTYRVVSVLTVLHQDWLNGKEYKCKVSNKALPAPIEKTISKAKGQPREPQVYTLPPSRKEMTKNQVSLTCLVKGFYPSDIAVEWESNGQPENNYKTTPPYLDSDGSFFLYSKLTVDKSRWQQGNVFSCSVMHEALHNHYTQKSLSLSP
light 2: DIQMTQSSSSFSVSLGDRVTITCKASEDIYNRLAWYQQKPGNAPRLLISGATSLETGVPSRFSGSGSGKDYTLSITSLQTEDVATYYCQQYWSTPYTFGGGTKLEVKRTVAAPSVFIFPPSDEQLKSGTASVVCLLNNFYPREAKVQWKVDNALQSGNSQESVTEQDSKDSTYSLSSTLTLSKADYEKHKVYACEVTHQGLSSPVTKSFNRGEC
Take B1: the “IC50 (read off the curve)” value was about 0.4 microgram/mL.
